Source: patent US20180355064A1 (published 2018)
Numbering of substitutions follows the chain as printed.

B1: humanized 9G7 best-framework antibody (antibody, V domains shown)
VH: EVQLVESGGGLVQPGGSLRLSCAFSGLSLSTSGKGVGWIRQAPGKGLEWLAHIWWDDDKRYNPALKSRLTISKDTSKNTVYLQMNSLRAEDTAVYYCARIELGRSYVMDYWGQGTLVTVSS
VL: DIQMTQSPSSLSASVGDRVTITCRASQDVITSVAWFQQKPGKAPKLLIYSASYRYTGVPSRFSGSGSGTDFTLTISSLQPEDFATYYCQQHYTIPLTFGQGTKVEIKR
B2: humanized 9G7 best-fit antibody (antibody, V domains shown)
VH: QVTLKESGPTLVKPTQTLTLTCTFSGLSLSTSGKGVGWIRQPPGKALEWLAHIWWDDDKRYNPALKSRLTITKDTSKNQVVLTMTNMDPVDTATYYCARIELGRSYVMDYWGQGTLVTVSS
VL: B1 VL with R24Q, F36Y, L73F, F83I, V104L
B3: chimeric 9G7 antibody (antibody, V domains shown)
VH: QVTLKESGPGILQPSQTLSLTCSFSGLSLSTSGKGVGWIRQPSGKGLEWLAHIWWDDDKRYNPALKSRLTISKDTSSNQVFLKIASVDTADTATYYCARIELGRSYVMDYWGQGTTVTVSS
VL: DIVMTQSHKFMSTSVGDRVSISCKASQDVITSVAWFQQKPGQSPKLLIYSASYRYTGVPDRFTGSGSGTDFTFTISSVQAEDLAVYYCQQHYTIPLTFGAGTKLELKR

Tests used:
[1] = target: human CD3 epsilon 1-26_Fc fusion protein; assay: SPR
[2] = target: cynomolgus monkey CD3 epsilon 1-26_Fc fusion protein; assay: SPR

| Binder | Kd [1] [pM] | Kd [2] [pM] |
| --- | --- | --- |
| B1 | 400 | 1000 |
| B2 | 500 | 3200 |
| B3 | 400 | 1000 |
